Measurements taken from patent US7255985B2, “Fluorine NMR spectroscopy for biochemical screening” (Pfizer Italia S.r.l., priority 2003, dated 2007).
Non-standard residues stand in square brackets, D forms with d. No end group written: not given here. *: point of attachment. Phe(3-CF3) = N[C@@H](Cc1cccc(C(F)(F)F)c1)C(=O)O; Tfa = O=C(C(F)(F)F)*

Key:
Format in all cases: biochemical
[1] = biological target: T1, protein Ser/Thr kinase AKT1 (Homo sapiens, UniProt P31749); experiment: 19F NMR assay of phosphorylation of CF3-labeled peptide by AKT1
T1 construct: baculovirus coding for the full length protein fused to GST at the N-terminus; GST (N, cleaved yes); made in house; host or cells: Sf21 insect cells (baculovirus), treated with okadaic acid before harvest
Description: D2O was added to the solutions (8% final concentration) for the lock signal.

[2] = biological target: T2, trypsin from bovine pancreas (Bos taurus, UniProt P00760); experiment: 19F NMR assay of cleavage of CF3-labeled peptide by trypsin; details: 15 nM trypsin
T2 construct: purchased Roche Molecular Biochemical 1418025; host or cells: bovine pancreas
T2 sequence (P00760 24-246): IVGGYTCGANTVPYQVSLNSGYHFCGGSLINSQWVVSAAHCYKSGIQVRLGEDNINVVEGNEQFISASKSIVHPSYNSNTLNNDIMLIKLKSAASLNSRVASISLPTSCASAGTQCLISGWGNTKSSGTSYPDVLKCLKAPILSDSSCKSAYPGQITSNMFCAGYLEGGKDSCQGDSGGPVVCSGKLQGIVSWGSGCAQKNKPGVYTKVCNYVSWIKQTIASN
Description: FIG. 4 provides the screening of proteases, where the substrate is the peptide of Seq ID NO:2 and the protein is trypsin from bovine pancreas. ^19F NMR spectra for the peptide in the absence (a) and in the presence (b–e) of trypsin. The reaction was run at 22° C. and quenched after 30 minutes with the addition of 0.5 mM phenylmethylsulfonyl fluoride (PMSF). The reaction was performed in the absence of compound (b), in the presence of a five compound mixture (2-amino-6 methylquinazolin-4 ol, ethyl 2-quinoxalinecarboxylate, 5-methyl-benzimidazole, methyl isoquinoline-3-carboxylate, and leupeptin) (c), in the presence of the same mixture without leupeptin (d), and in the presence of only leupeptin (e). The protein, peptide, and compound concentrations were 15 nM, 30 μM, and 20 μM, respectively. A total of 128 scans with 2.8 s repetition time were recorded for each spectrum (6 minute measuring time). Pep and C-pep are the substrate and the product respectively.
The method of the present invention can also be applied to many different types and subtypes of enzymes (e.g. proteases, phosphatases, ligases, etc.). […]
All NMR spectra were recorded at 20° C. with a 600 NMR spectrometer operating at a ^19F Larmor frequency of 564 MHZ. […]

[3] = biological target: T3, p21-activated kinase PAK4 (Homo sapiens, UniProt O96013); experiment: 19F NMR assay of CF3-labeled peptide with PAK4 (protein function)
T3 construct: GST (cleaved yes); made in house; host or cells: Escherichia coli
Description: FIG. 5 provides the 19F spectra of the peptide of Seq ID NO:2 in the presence of three different proteins, 25 nM AKT1 (FIG. 5A top), 15 nM trypsin (FIG. 5B middle) and 150 nM PAK4 (FIG. 5C bottom). […] The chemical shift of the cleaved peptide is quite different when compared to the chemical shift of the phosphorylated peptide.
In another embodiment of the present invention, three different proteins, AKT1, Trypsin, and p-21 activated protein (PAK4) were incubated with the CF3-labeled peptide of Seq ID NO:2. […] A higher concentration of the protein with unknown function and a longer incubation period may be required because the substrate may not be optimal for the protein with unknown function. The speed of the enzymatic reaction of PAK4 is only 1/22 of the speed of AKT1, therefore, the period of time for the reaction in the presence of PAK4 was longer than the period of time for the reaction in the presence of AKT1. The method of the present invention is also applicable to activated enzymes.
The serine/threonine p21-activated kinase PAK4 was expressed as a GST fusion protein in Escherichia coli and purified to homogeneity after removal of the GST tag.
All NMR spectra were recorded at 20° C. with a 600 NMR spectrometer operating at a ^19F Larmor frequency of 564 MHZ. A 5 mm probe tunable to either 19F or ^1H frequency was used. […]

T1 sequence (P31749 whole entry, the tested form may be a part): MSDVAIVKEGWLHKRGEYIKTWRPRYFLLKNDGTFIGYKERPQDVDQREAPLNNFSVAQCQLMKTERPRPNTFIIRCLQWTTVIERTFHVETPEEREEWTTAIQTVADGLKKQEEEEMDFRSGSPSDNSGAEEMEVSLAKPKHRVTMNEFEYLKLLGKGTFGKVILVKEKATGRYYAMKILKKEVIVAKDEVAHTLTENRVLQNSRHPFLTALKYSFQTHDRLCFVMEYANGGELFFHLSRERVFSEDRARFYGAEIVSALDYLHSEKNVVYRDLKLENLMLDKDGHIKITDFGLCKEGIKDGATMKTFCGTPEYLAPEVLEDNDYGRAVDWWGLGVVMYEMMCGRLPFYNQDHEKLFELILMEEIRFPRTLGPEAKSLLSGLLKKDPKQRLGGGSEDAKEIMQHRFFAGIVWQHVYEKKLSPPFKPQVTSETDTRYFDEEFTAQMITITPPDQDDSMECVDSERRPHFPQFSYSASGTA
T3 sequence (O96013 whole entry): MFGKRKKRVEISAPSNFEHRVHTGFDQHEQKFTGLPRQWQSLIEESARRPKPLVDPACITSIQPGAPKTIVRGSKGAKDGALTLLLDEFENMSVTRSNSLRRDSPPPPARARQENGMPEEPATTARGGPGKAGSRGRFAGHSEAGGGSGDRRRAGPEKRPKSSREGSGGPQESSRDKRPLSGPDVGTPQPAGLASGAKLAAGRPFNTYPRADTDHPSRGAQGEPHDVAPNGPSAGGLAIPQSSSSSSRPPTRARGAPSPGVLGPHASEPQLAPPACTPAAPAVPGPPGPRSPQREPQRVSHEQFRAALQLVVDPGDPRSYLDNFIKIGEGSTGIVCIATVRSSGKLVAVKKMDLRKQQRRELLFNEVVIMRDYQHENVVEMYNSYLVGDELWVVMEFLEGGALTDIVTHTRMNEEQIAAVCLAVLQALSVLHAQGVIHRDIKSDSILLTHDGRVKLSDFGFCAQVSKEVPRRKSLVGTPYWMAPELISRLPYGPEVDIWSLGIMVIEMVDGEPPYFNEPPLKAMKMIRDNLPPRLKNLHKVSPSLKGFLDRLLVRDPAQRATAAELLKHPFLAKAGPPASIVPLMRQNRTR

O=S(=O)(NCCNC/C=C/c1ccc(Br)cc1)c1cccc2cnccc12 [H89]
inhibition of peptide phosphorylation ([1]; reaction in the presence of only H89 (deconvolution of five molecule mixture)): inhibitory effect over peptide phosphorylation

CF3—CO-ARKRERAYSFGHHA (Tfa-ARKRERAYSFGHHA) [CF3-labeled peptide of Seq ID NO:1, AKTide, 14 aminoacid peptide labeled with CF3 by N-terminal capping with trifluoroacetic anhydride]
time after which the enzymatic reaction is complete ([1]; 50 nM protein, 30 μM peptide, 131 μM ATP, no inhibitor): 149 min

CN[C@@H]1C[C@H]2O[C@@](C)([C@@H]1OC)n1c3ccccc3c3c4c(c5c6ccccc6n2c5c31)C(=O)NC4 [staurosporine]
formation of phosphorylated peptide in the presence of inhibitor ([1]; 10 μM Staurosporine, 50 nM protein, 30 μM peptide, 131 μM ATP): did not result in any formation of phosphorylated peptide

ARKRERAF(3-CF3)SFGHHA (ARKRERA[Phe(3-CF3)]SFGHHA) [peptide of Seq ID NO:2, CF3-labeled peptide substrate for trypsin, AKT1 and PAK4]
substrate quality for AKT1 ([1]; 25 nM AKT1): good substrate
substrate quality for trypsin [2]: good substrate
19F signal after reaction with PAK4 ([3]; 150 nM PAK4): appearance of a signal at the chemical shift of the phosphorylated peptide
speed of the enzymatic reaction of PAK4 relative to AKT1 ([3]; ratio to speed of AKT1): 1/22

CC(=O)N[C@@H](CC(C)C)C(=O)N[C@@H](CC(C)C)C(=O)N[C@H](C=O)CCCNC(=N)N [leupeptin, reference compound]
inhibition of peptide cleavage by trypsin (cleaved peptide signal) ([2]; 20 μM compound, 30 μM peptide, 22° C., quenched after 30 minutes): missing cleaved peptide signal

Nc1ncnc2c1ncn2[C@@H]1O[C@H](COP(=O)(O)OP(=O)(O)OP(=O)(O)O)[C@@H](O)[C@H]1O [ATP]
Km ([1]; 40 nM protein, 30 μM substrate peptide, 22° C., quenched after 60 minutes, read-out: KM / binding constant for ATP): 89 µM
